Measured values: patent US20240102094A1 (Amgen, published 2024)

Columns and labels:
[1] = target: T1, human TREM2, common variant, expressed on cells (human, UniProt Q9NZC2 19-230); assay: cell-based or functional assay
T1 sequence: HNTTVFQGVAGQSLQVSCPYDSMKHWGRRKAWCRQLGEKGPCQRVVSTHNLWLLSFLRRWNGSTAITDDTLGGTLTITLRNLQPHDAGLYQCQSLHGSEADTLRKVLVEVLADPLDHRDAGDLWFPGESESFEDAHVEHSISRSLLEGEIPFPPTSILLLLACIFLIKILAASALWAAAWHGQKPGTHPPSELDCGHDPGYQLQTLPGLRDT

[2] = target: T2, human TREM2 R47H variant, expressed on cells (human, UniProt Q9NZC2 19-230); assay: flow cytometry on bone marrow-derived macrophages from TREM2R47H mice, detection with anti-hIgG Fc-PE
T2 construct: On BMMs from TREM2R47H transgenic mice or on 2B4 NFAT:GFP reporter cells with DAP12; also called hTREM2R47H
T2 chain: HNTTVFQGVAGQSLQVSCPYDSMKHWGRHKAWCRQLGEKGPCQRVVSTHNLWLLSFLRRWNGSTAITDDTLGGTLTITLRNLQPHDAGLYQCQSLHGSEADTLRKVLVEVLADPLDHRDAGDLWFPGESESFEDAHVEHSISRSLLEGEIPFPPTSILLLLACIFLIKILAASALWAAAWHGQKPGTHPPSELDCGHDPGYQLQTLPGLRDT
Description: An anti-hTREM1 antibody and an isotype-matched hIgG2 control antibody were used as controls. […] Dead cells were excluded by DAPI staining.

[3] = target: T3, mTREM2 expressed with mDAP12 on HEK293 cells (mouse, UniProt Q99NH8 19-227); assay: flow cytometry on HEK293 cells expressing mTREM2 and mDAP12, Geomean Fold (S/B) against antibody concentration
T3 construct: whole, on cells
T3 sequence (looked up): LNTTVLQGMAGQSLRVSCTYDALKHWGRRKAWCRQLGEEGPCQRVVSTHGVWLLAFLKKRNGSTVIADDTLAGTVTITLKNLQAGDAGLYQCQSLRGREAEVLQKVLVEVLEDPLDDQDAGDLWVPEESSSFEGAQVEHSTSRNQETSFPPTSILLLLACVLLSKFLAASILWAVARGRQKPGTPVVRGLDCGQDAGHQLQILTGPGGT

[4] = target: T4, recombinant hTREM2:GSS:Flag:6xHis (human, UniProt Q9NZC2 19-174, minimally biotinylated (0.3-0.4 biotin/mol) when immobilised on streptavidin sensors); assay: Octet BLI; biotinylated hTREM2:GSS:Flag:6xHis on streptavidin sensors, Fab dilution series 30, 10, 3.3 nM, global 1:1 fit; Fab, not IgG; biotinylated hTREM2 on streptavidin sensors
T4 construct: also called hTREM2-His; purified human TREM2; not shown: Flag tag

Row | Binder | EC50 of pSyk induction in HEK293 cells expressing human TREM2 and DAP12 (clone G13) [1] | EC50 of pSyk induction in human monocyte-derived macrophages (hMacs) [1] | binding result [2] | binding result [3] | Kd [4]
1 | hT2AB (fully human anti-human TREM2 agonistic monoclonal antibody, effectorless hIgG1) (antibody, V domains shown, also called hT2AB IgG1; anti-human TREM2 mAb hT2AB) VH: EVQLVQSGAEVKKPGESLKISCKGSGYSFTSYWIGWVRQMPGKGLEWMGIIYPGDADARYSPSFQGQVTISADKSISTAYLQWSSLKASDTAMYFCARRRQGIFGDALDFWGQGTLVTVSS VL: EIVMTQSPATLSVSPGERATLSCRASQSVSSNLAWFQQKPGQAPRLLIYGASTRATGIPARFSGSGSGTEFTLTISSLQPEDFAVYYCLQDNNFPPTFGQGTKVDIKR | 222 pM | 166 pM | binds | no binding (tested: 5 ug/mL) | 
2 | hT2AB Fab (monomeric antigen-binding fragment of hT2AB) (Fab, V domains shown, also called hT2AB Fab protein) VH: EVQLVQSGAEVKKPGESLKISCKGSGYSFTSYWIGWVRQMPGKGLEWMGIIYPGDADARYSPSFQGQVTISADKSISTAYLQWSSLKASDTAMYFCARRRQGIFGDALDFWGQGTLVTVSS VL: EIVMTQSPATLSVSPGERATLSCRASQSVSSNLAWFQQKPGQAPRLLIYGASTRATGIPARFSGSGSGTEFTLTISSLQPEDFAVYYCLQDNNFPPTFGQGTKVDIK |  |  |  |  | 50 nM
